In US20060253917A1 (published 2006):
One block for each binder: values may come before it. Ends that are not written are not given here.

What was measured:
[1] = target: T1, OsCYCOS2 aa 50-233 (Oryza sativa, UniProt A2YH60 50-233); test: Y2H; input trait library
T1 construct: bait, Gal4 DBD fusion; also called PN20257; O. sativa Cyclin OsCYCOS2
T1 chain: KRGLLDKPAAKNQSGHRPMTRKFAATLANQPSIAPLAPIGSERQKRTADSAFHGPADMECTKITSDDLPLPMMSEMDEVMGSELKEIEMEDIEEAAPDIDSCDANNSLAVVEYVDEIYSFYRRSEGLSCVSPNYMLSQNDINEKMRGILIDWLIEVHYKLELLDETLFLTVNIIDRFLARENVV
Method in brief: (§1)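 Protein-protein interactions were detected with an automated, high-throughput yeast two-hybrid assay provided by Myriad Genetics Inc. (Salt Lake City, Utah). A bait clone encoding a defined amino-acid fragment of a rice protein was screened against a rice prey library, either the input trait or the output trait library. Prey clones were retrieved, and their encoding sequences were compared by BLAST against databases to identify the interacting proteins.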

[2] = target: T2, Os005750-3115 aa 50-150 (Oryza sativa, UniProt Q6IVC3 50-150); test: Y2H; output trait library
T2 construct: bait, Gal4 DBD fusion; also called PN20466; O. sativa bZIP Transcription Factor
T2 sequence: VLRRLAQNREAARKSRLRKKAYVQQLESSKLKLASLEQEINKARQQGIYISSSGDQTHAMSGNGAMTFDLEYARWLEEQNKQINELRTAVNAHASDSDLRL
Method in brief: as §1

[3] = target: T3, OsPP2A-2 aa 150-308 (Oryza sativa, UniProt A2XN40 150-307); test: Y2H; output trait library
T3 construct: bait, Gal4 DBD fusion; also called PN20254
T3 sequence: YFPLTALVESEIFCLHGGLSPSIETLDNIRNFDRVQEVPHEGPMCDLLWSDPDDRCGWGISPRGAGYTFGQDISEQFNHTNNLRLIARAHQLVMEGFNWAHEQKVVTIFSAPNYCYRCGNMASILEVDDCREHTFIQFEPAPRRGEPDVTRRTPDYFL

[4] = target: T4, OsCAA90866 aa 100-250 (Oryza sativa); test: Y2H; input trait library
T4 construct: bait, Gal4 DBD fusion; also called PN20311; O. sativa Chilling-Inducible Protein CAA90866
T4 chain: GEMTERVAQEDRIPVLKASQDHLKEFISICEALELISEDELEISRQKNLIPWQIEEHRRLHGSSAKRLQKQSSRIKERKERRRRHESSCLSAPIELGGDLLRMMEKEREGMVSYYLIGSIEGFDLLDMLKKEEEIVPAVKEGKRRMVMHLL
Method in brief: as §1

[5] = target: T5, Os018989-4003 aa 90-220 (Oryza sativa); test: Y2H; output trait library
T5 construct: bait, Gal4 DBD fusion; also called PN21044
T5 chain: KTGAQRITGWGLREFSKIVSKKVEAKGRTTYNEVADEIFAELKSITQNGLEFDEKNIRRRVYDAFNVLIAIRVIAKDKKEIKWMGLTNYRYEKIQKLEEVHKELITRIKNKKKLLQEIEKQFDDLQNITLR
Method in brief: as §1

[6] = target: T5, Os018989-4003 aa 90-220; test: Y2H; input trait library
Method in brief: as §1

[7] = target: T6, OsMADS5 aa 50-160 (Oryza sativa, UniProt A2Y9P0 50-160); test: Y2H; output trait library
T6 construct: bait, Gal4 DBD fusion; also called PN20770
T6 sequence: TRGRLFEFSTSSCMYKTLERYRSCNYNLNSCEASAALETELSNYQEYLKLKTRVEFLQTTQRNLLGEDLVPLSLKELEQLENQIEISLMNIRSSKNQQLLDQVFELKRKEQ
Method in brief: as §1

- binding result [1]: binds
B9: PN23416 aa 130-176 (other)
chain: YFEKQRAMNQVRQRVFQQAVQGALGTLNSCLNTELHFRTIRANISIL
modifications: not fully specified
notes: prey, AD fusion; also called Chloroplast ATPase I Subunit

- binding result [5]: binds
B10: OsPN22824 aa 393-494 (other)
chain: ASLVEQDLKERAAREARMGEQLRASEAARETLEAEMRRLRVQTEQWRKAAEAAPPVIGGDAHFVGHNGNGWGSPATMPDDCDDEGFGGKRKGAGIRMLGDLW
notes: prey, AD fusion; also called Novel Protein PN22824, Myosin heavy chain

- binding result [6]: binds
B11: OsAAK72891 aa 322-549 (other)
chain: EIITYFKSEMSKLKRMHELDLQEKTEELFKFKREKGLLTLKNDVEFEPLRKKIPQIISRMDQIISKNIKMPSLCMTNDGLDERCISAKRIDSLYYENQHLRGLLADNMKDVKELSSQLSEASKEMSIQLSSEDDLLRQIAKIKEEYEDLQIEAGVRDGVYQTITRKLLDDSMNSMHDAATNFSTELSSLEAMISEKEKALCLSNEENRMLKEKIAELEQCLIQDKQED
notes: prey, AD fusion; also called PN26317

- binding result [5]: binds
B12: OsE2F1 aa 191-436 (other)
chain: LQAEVENLSLKEQALDERISDMREKLRGLTEDENNQRWLYVTEDDIKGLPCFQNETLIAIKAPHGTTLEVPDPDEAGDYLQRRYRIVLRSTMGPIDVYLVSQFDEKFEDLGGGATPSGHANVPKHQPTEVFNTTNAGVGQCSNSVAVDNNIQHSQTIPQDPSASHDFGGMTRIIPSDIDTDADYWLISEGDVSITDMWKTAPDVQWDESLDTDVFLSEDVRTPSSHNQQPSAVGGPQMQVSDMHKP
notes: prey, AD fusion; also called PN19758

- binding result [7]: binds
B13: Os000564-1102 aa 72-172 (other)
chain: SIEQKEESRGNEDRVTLIKDYRGKIETELTKICDGILKLLESHLVPSSTAPESKVFYLKMKGDYYRYLAEFKTGAERKDAAENTMVAYKAAQDIALAELPP
notes: prey, AD fusion; also called PN20072; Hypothetical protein 000564-1102

- binding result [7]: binds
B14: OsBAB56078 aa 51-155 (other)
chain: PGRFVRKCEKTEQLLRDCVGSDIEALEKGLFGSIGSFLDDAERMTNDFLKSFGVPSINERESSSFDGQPTGRHIGGQPAGRHIEEGTAKDTKQNDYAEFSSKITD
notes: prey, AD fusion; also called PN28517; O. sativa Hypothetical protein BAB56078

- binding result [4]: binds
B15: OsAAG46136 aa 92-222 (other)
chain: FGVNSGTTRFALENQAINEATFRCPDELGWKPQRAPIVSSDGSISNLRKTTVPVNEVNKSLQQMGFDVAPSDDAGRFVCNYVYYQSLRFAEQRGIKSLFVHFPLFTTISEEVQMNFVATLLEVLASQNYAQ
notes: prey, AD fusion; also called PN23186; O. sativa Putative Pyrrolidone Carboxyl Peptidase

- binding result [6]: binds
B16: OsAAK72891 aa 342-638 (other)
chain: LQEKTEELFKFKREKGLLTLKNDVEFEPLRKKIPQIISRMDQIISKNIKMPSLCMTNDGLDERCISAKRIDSLYYENQHLRGLLADNMKDVKELSSQLSEASKEMSIQLSSEDDLLRQIAKIKEEYEDLQIEAGVRDGVYQTITRKLLDDSMNSMHDAATNFSTELSSLEAMISEKEKALCLSNEENRMLKEKIAELEQCLIQDKQEDPEVIKQESTEIILRDIEVAPHISPRRSHETPKQDMQYDELVKLNSSLEIASAALKEVENKNIDYNGIFTKNEQEKQLECILISIMKLSK
notes: prey, AD fusion; also called PN26317; O. sativa Putative Myosin Heavy Chain

- binding result [4]: binds
B17: OsPN23045 aa 240-287 (other)
chain: ILSKLVQAKELLKEYVEREKKKREERSETPKSNEAVTKFDGSLNSMRH
modifications: not fully specified
notes: prey, AD fusion; also called Novel Protein PN23045

- binding result [2]: binds
B18: OsAAG13633 aa 538-738 (other)
chain: CSAHLSIISDLEANVESLENELQEQSKRLEADIQEVMRAKVEQEQRAIKAEESLRKARWNNATTAERLQEEFKMLSSQVSSAFSANEQLLMQARKEAAELQLQKGQLEELLQKAQEDLGSIQEQHRVKVQQLLTLVDFKSKETDRLVMELKSKSDEFQNQKRCNEAKLSVLSEEIDQLKAKIENLSNERDNLFEENEQKDK
notes: prey, AD fusion; also called PN25701

- binding result [7]: binds
B19: OsMADS13 aa 69-230 (other)
chain: RYKKAHACGSTSGAPLIEVNAQQYYQQESAKLRHQIQMLQNTNKHLVGDNVSNLSLKELKQLESRLEKGIAKIRARKNELLASEINYMAKREIELQNDNMDLRTKIAEEEQQLQQVTVARSAAMELQAAAAAQQQQQNPFAVAAAQLDMKCFFPLNLFEAAA
notes: prey, AD fusion; also called PN20668

Second part, the binder before the results:

B1: OsPN23274 aa 79-210 (other)
chain: GELPRSASLCLREVLLVLQRFKAIVADCSARSRMRLLLESDEMEAELRELNHDLATLLDLLPVVELGLADDVLDVLALASRQCRRCSPAPESEEALKASVLSLIQEIEREIVPERERLEEILVEVGINDPAS
notes: prey, AD fusion; also called Novel Protein PN23274, Similar to A. thaliana ARM Repeat-Containing Protein
- binding result [1]: binds

B2: OsAAG13633 aa 528-789 (other)
chain: LREQLRMQYECSAHLSIISDLEANVESLENELQEQSKRLEADIQEVMRAKVEQEQRAIKAEESLRKARWNNATTAERLQEEFKMLSSQVSSAFSANEQLLMQARKEAAELQLQKGQLEELLQKAQEDLGSIQEQHRVKVQQLLTLVDFKSKETDRLVMELKSKSDEFQNQKRCNEAKLSVLSEEIDQLKAKIENLSNERDNLFEENEQKDKELAANCQKDMFLQDRDAEIALLNKELASIKDQVQTYLEEINTLKSSKNEKE
notes: as for B18
- binding result [2]: binds

B3: PN23297 aa 980-1160 (other)
chain: LRLTLERRLRAAGEEAKSVEILKRDKLIESLSAKCAAAKSAAQSEHDKNLLLQRQLDDSLREITMLRSSKIMTAEAERENSNLKNLVESLSKNNSSLEYELTSARKGSDATMKKLKDVEGKCNHLQQNLDKLQEKLTNMENENHVLRQKALNMSPLNNMPMTTKAFPQKFATPIGLPNGEQ
notes: prey, AD fusion; also called 15451591; O. sativa Putative Myosin Heavy Chain
- binding result [1]: binds

B4: OsAAG13633 aa 612-738 (other)
chain: LSSQVSSAFSANEQLLMQARKEAAELQLQKGQLEELLQKAQEDLGSIQEQHRVKVQQLLTLVDFKSKETDRLVMELKSKSDEFQNQKRCNEAKLSVLSEEIDQLKAKIENLSNERDNLFEENEQKDK
notes: as for B18
- binding result [2]: binds

B5: Os011994-D16 aa 99-368 (other)
chain: FGPSFGGGGSSRGRRQRRGEDVIHPLKVSLEDLYNGTSKKLSLSRNVLCAKCKGKGSKSGASMRCPGCQGSGMKITIRQLGPSMIQQMQQPCNECKGTGESINEKDRCPGCKGEKVIQEKKVLEVHVEKGMQHNQKITFPGEADEAPDTVTGDIVFVLQQKDHSKFKRKGDDLFYEHTLSLTEALCGFQFVLTHLDNRQLLIKSNPGEVVKPDQFKAINDEGMPMYQRPFMKGKLYIHFTVEFPDSLAPEQCKALEAVLPPKPASQLTEM
notes: prey, AD fusion; also called PN20618; Hypothetical Protein 011994-D16, Similar to Z. mays DnaJ protein
- binding result [3]: binds

B6: OsPN24162 aa 28-164 (other)
chain: QKLTVSTVSSSGVGLTSTAVKKGGLYTLDVSSVYKYKSTLVDVKVDTESNISTTLTVFDVLPSTKLVTSVKLPDYNSGKVEMQYFHENASFATAVGMKPSPVVEFSGTAGAQGLAFGAEAGFDTATGKFTKYSAAIG
notes: prey, AD fusion; also called Novel Protein PN24162, Porin-like, Voltage-Dependent Anion Channel Protein
- binding result [3]: binds

B7: OsPN23225 aa 639-792 (other)
chain: FGIRILDEAQQCIEELQCPEYYSEIVKEAINLALDKGPNFIDPLVRLLEHLHTKKIFKTEDLKTGCLLYAALLEDIGIDLPLAPALFGEVVARLSLSCSLSFEVVEEILKAVEDTYFRKGIFDAVMKTMGGNSSGQAILSSHAVVIDACNKLLK
notes: prey, AD fusion; also called Novel Protein PN23225, Similar to Tritticum aestivum Initiation Factor (iso)4f p82 Subunit
- binding result [4]: binds

B8: OsCAA33838 aa 5-155 (other)
chain: VFSRFSIYFCVLLLCHGSMAQLFNPSTNPWHSPRQGSFRECRFDRLQAFEPLRKVRSEAGVTEYFDEKNELFQCTGTFVIRRVIQPQGLLVPRYTNIPGVVYIIQGRGSMGLTFPGCPATYQQQFQQFSSQGQSQSQKFRDEHQKIHQFRQ
notes: prey, AD fusion; also called PN24775; O. sativa Glutelin CAA33838
- binding result [3]: binds
